Results: patent US20240336672A1

What was measured:
Conditions in all cases: remark: other sources report otherwise
[1] = target: SARS-CoV-2 delta plus variant RBD (SARS-CoV-2); test: ELISA; design: unit not given beside the values
[2] = target: T1, SARS-CoV-2 kappa variant B.1.617.1/3 RBD domain (SARS-CoV-2); test: ELISA; design: unit not given beside the values
[3] = target: T2, SARS-CoV-2 delta variant B.1.617.2/3 RBD domain (SARS-CoV-2); test: ELISA; design: unit not given beside the values
[4] = target: SARS-CoV-2 delta plus variant RBD (SARS-CoV-2); test: RBD/ACE2 blocking ELISA
[5] = target: T2, SARS-CoV-2 delta variant B.1.617.2/3 …; test: RBD/ACE2 blocking ELISA
[6] = target: SARS-CoV-2 omicron variant B.1.1.529 RBD domain (SARS-CoV-2); test: ELISA; design: unit not given beside the values
[7] = target: T3, SARS-CoV-2 omicron variant B.1.1.529 Spike ectodomain (tri-S, HexaPro) (SARS-CoV-2), P0DTC2; test: ELISA; design: unit not given beside the values
[8] = target: SARS-CoV-2 delta plus variant RBD (SARS-CoV-2); test: ELISA; design: unit not given beside the values; remark: listed apart in the source
[9] = target: T1, SARS-CoV-2 kappa variant B.1.617.1/3 …; test: ELISA; design: unit not given beside the values; remark: listed apart in the source
[10] = target: T2, SARS-CoV-2 delta variant B.1.617.2/3 …; test: ELISA; design: unit not given beside the values; remark: listed apart in the source
[11] = target: T3, SARS-CoV-2 omicron variant B.1.1.529 …; test: tri-S/ACE2 blocking ELISA [B]
[12] = target: SARS-CoV-2 delta plus variant RBD (SARS-CoV-2); test: RBD-ACE2 competition ELISA; design: unit not given beside the values
[13] = target: T1, SARS-CoV-2 kappa variant B.1.617.1/3 …; test: RBD-ACE2 competition ELISA; design: unit not given beside the values
[14] = target: T2, SARS-CoV-2 delta variant B.1.617.2/3 …; test: RBD-ACE2 competition ELISA; design: unit not given beside the values
[15] = target: SARS-CoV-2 delta plus variant RBD (SARS-CoV-2); test: ELISA
[16] = target: T1, SARS-CoV-2 kappa variant B.1.617.1/3 …; test: RBD/ACE2 blocking ELISA

B1: COV2-2130 (antibody, V domains shown)
VH: EVQLVESGGGLVKPGGSLRLSCAASGFTFRDVWMSWVRQAPGKGLEWVGRIKSKIDGGTTDYAAPVKGRFTISRDDSKNTLYLQMNSLKTEDTAVYYCTTAGSYYYDTVGPGLPEGKFDYWGQGTLVTVSS
VL: not shown
Binder B1 has an AUC [1] of 3, an AUC [2] of 4 and an AUC [3] of 3. It also gave a % binding inhibition [4] of 88% and a % binding inhibition [5] of 77%.

B2: Cv2.1353 (recombinant human IgG1) (antibody)
heavy: EVQLVESGGGLVQPGGSLRLSCAASGVTVSSNYMNWVRQAPGKGLEWVSVIYSGGSTFYADSVKGRFIISRDNSKNTLYLQMNSLKTEDTAVYYCARDLGPMGFDIWGQGTMVTVSSASTKGPSVFPLAPSSKSTSGGTAALGCLVKDYFPEPVTVSWNSGALTSGVHTFPAVLQSSGLYSLSSVVTVPSSSLGTQTYICNVNHKPSNTKVDKKVEPKSCDKTHTCPPCPAPELLGGPSVFLFPPKPKDTLMISRTPEVTCVVVDVSHEDPEVKFNWYVDGVEVHNAKTKPREEQYNSTYRVVSVLTVLHQDWLNGKEYKCKVSNKALPAPIEKTISKAKQPREPQVYTLPPSRDELTKNQVSLTCLVKGFYPSDIAVEWESNGQPENNYKTTPPVLDSDGSFFLYSKLTVDKSRWQQGNVFSCSVMHEALHNHYTQKSLSLSPGK
light: DIQMTQSPSFLSASVGDRVTITCRASQGISSYLAWYQQKPGKAPKLLIYAASTLQSGVPSRFSGSGSGTEFTLTISSLQPEDFATYYCQQLNSDPPVTFGPGTKVDIKRTVAAPSVFIFPPSDEQLKSGTASVVCLLNNFYPREAKVQWKVDNALQSGNSQESVTEQDSKDSTYSLSSTLTLSKADYEKHKVYACEVTHQGLSSPVTKSFNRGEC
In the case of B2, the AUC [6] is reported as 3, the AUC [7] is reported as 7 and the AUC (RBD bind.) [8] is reported as 13. The AUC (RBD bind.) [9] was 13, the AUC (RBD bind.) [10] was 13 and the AUC of blocking [11] was 4. It also gave an AUC (RBD block.) [12] of 142, an AUC (RBD block.) [13] of 112 and an AUC (RBD block.) [14] of 97.

B3: Cv2.3235 (recombinant human IgG1) (antibody)
heavy: EVQLVESGGGLIQPGGSLRLSCAASGFTVSRNYMSWVRQAPGKGLEWVSVIYSGGSTFYADSVKGRFTISRDNSKNTLYLQMNSLRAEDTAVYYCARDGDYYGMDVWGQGTTVTVSSASTKGPSVFPLAPSSKSTSGGTAALGCLVKDYFPEPVTVSWNSGALTSGVHTFPAVLQSSGLYSLSSVVTVPSSSLGTQTYICNVNHKPSNTKVDKKVEPKSCDKTHTCPPCPAPELLGGPSVFLFPPKPKDTLMISRTPEVTCVVVDVSHEDPEVKFNWYVDGVEVHNAKTKPREEQYNSTYRVVSVLTVLHQDWLNGKEYKCKVSNKALPAPIEKTISKAKQPREPQVYTLPPSRDELTKNQVSLTCLVKGFYPSDIAVEWESNGQPENNYKTTPPVLDSDGSFFLYSKLTVDKSRWQQGNVFSCSVMHEALHNHYTQKSLSLSPGK
light: DIQMTQSPSFLSASVGDRVTITCRASQGISSFLAWYQQKPGKAPKLLIYGASTLQSGVTSRFSGSGSGTEFTLTISSLQPEDFATYYCQRLDSYPPITFGQGTRLEIKRTVAAPSVFIFPPSDEQLKSGTASVVCLLNNFYPREAKVQWKVDNALQSGNSQESVTEQDSKDSTYSLSSTLTLSKADYEKHKVYACEVTHQGLSSPVTKSFNRGEC
Binder B3 has an AUC [6] of 1, an AUC [7] of 1 and an EC50 (read off the curve) [15] of 0.3 µg/mL. It also gave an AUC (RBD bind.) [8] of 6, an AUC (RBD bind.) [9] of 12 and an AUC (RBD bind.) [10] of 13. It also gave an AUC of blocking [11] of 0, an AUC (RBD block.) [12] of 9 and an AUC (RBD block.) [13] of 111. It also gave an AUC (RBD block.) [14] of 71.

B4: ADG-2 (antibody, V domains shown)
VH: EVQLVESGGGLVKPGGSLRLSCAASGFTFSSYYMNWVRQAPGKGLEWVSSISEDGYSTYYPDSLKGRFTISRDSAKNSLYLQMNSLRADDTAVYYCARDFSGHTAWAGTGFEYWGQGTLVTVSS
VL: QSVLTQPPSVSGAPGQRITISCTGSSSNIGAGYDVHWYQQLPGTAPKLLIYGSSSRNSGVPDRFSGSKSGTSASLAITGLQAEDEADYYCQSYDSSLSVLYTFGTGTKVTVL
With B4 the AUC [1] was 3, the AUC [2] was 4 and the AUC [3] was 3. It also gave a % binding inhibition [4] of 80%, a % binding inhibition [16] of 95% and a % binding inhibition [5] of 96%.
